Earlier results on one substance are cited in US7625865B2, “Insulin highly respirable microparticles” (Universita Degli Studi Di Parma, priority 2004, dated 2009).

For series [1] the following is noted: nebulization versus direct instillation of an acidic insulin solution.
For series [2] the following is noted: rats.
The conditions of series [3]: intratracheal instillation.

With insulin, the “absorbed fraction, aerosolized insulin versus instilled insulin” value in series [1] is 10 fold. For the same substance, the absorption of insulin result in series [2] is listed as “rapid absorption”. Further, the “bioavailability of formulation at pH 3 versus pH 7” value in series [3] is recorded as “greater bioavalability”.
